According to publication PMC2114792 (The Journal of Cell Biology, 1987):

Biological target: the molecule itself
Experiment: rotary shadowing electron microscopy

B1: chicken hexabrachion protein (myotendinous (M1) antigen) (natural protein, UniProt P10039 34-1808, looked up)
chain: ETGLNVTLPEDNQPVVFNHVYNIKLPVGSLCSVDLDTASGDADLKAEIEPVKNYEEHTVNEGNQIVFTHRINIPRRACGCAAAPDIKDLLSRLEELEGLVSSLREQCASGAGCCPNSQTAEGRLDTAPYCSGHGNYSTEICGCVCEPGWKGPNCSEPACPRNCLNRGLCVRGKCICEEGFTGEDCSQAACPSDCNDQGKCVDGVCVCFEGYTGPDCGEELCPHGCGIHGRCVGGRCVCHEGFTGEDCNEPLCPNNCHNRGRCVDNECVCDEGYTGEDCGELICPNDCFDRGRCINGTCFCEEGYTGEDCGELTCPNNCNGNGRCENGLCVCHEGFVGDDCSQKRCPKDCNNRGHCVDGRCVCHEGYLGEDCGELRCPNDCHNRGRCINGQCVCDEGFIGEDCGELRCPNDCHNRGRCVNGQCECHEGFIGEDCGELRCPNDCNSHGRCVNGQCVCDEGYTGEDCGELRCPNDCHNRGRCVEGRCVCDNGFMGEDCGELSCPNDCHQHGRCVDGRCVCHEGFTGEDCRERSCPNDCNNVGRCVEGRCVCEEGYMGIDCSDVSPPTELTVTNVTDKTVNLEWKHENLVNEYLVTYVPTSSGGLDLQFTVPGNQTSATIHELEPGVEYFIRVFAILKNKKSIPVSARVATYLPAPEGLKFKSVRETSVQVEWDPLSISFDGWELVFRNMQKKDDNGDITSSLKRPETSYMQPGLAPGQQYNVSLHIVKNNTRGPGLSRVITTKLDAPSQIEAKDVTDTTALITWSKPLAEIEGIELTYGPKDVPGDRTTIDLSEDENQYSIGNLRPHTEYEVTLISRRGDMESDPAKEVFVTDLDAPRNLKRVSQTDNSITLEWKNSHANIDNYRIKFAPISGGDHTELTVPKGNQATTRATLTGLRPGTEYGIGVTAVRQDRESAPATINAGTDLDNPKDLEVSDPTETTLSLRWRRPVAKFDRYRLTYVSPSGKKNEMEIPVDSTSFILRGLDAGTEYTISLVAEKGRHKSKPTTIKGSTEEEPELGNLSVSETGWDGFQLTWTAADGAYENFVIQVQQSDNPEETWNITVPGGQHSVNVTGLKANTPYNVTLYGVIRGYRTKPLYVETTTGAHPEVGELTVSDITPESFNLSWTTTNGDFDAFTIEIIDSNRLLEPMEFNISGNSRTAHISGLSPSTDFIVYLYGISHGFRTQAISAAATTEAEPEVDNLLVSDATPDGFRLSWTADDGVFDSFVLKIRDTKRKSDPLELIVPGHERTHDITGLKEGTEYEIELYGVSSGRRSQPINSVATTVVGSPKGISFSDITENSATVSWTPPRSRVDSYRVSYVPITGGTPNVVTVDGSKTRTKLVKLVPGVDYNVNIISVKGFEESEPISGILKTALDSPSGLVVMNITDSEALATWQPAIAAVDNYIVSYSSEDEPEVTQMVSGNTVEYDLNGLRPATEYTLRVHAVKDAQKSETLSTQFTTGLDAPKDLSATEVQSETAVITWRPPRAPVTDYLLTYESIDGRVKEVILDPETTSYTLTELSPSTQYTVKLQALSRSMRSKMIQTVFTTTGLLYPYPKDCSQALLNGEVTSGLYTIYLNGDRTQPLQVFCDMAEDGGGWIVFLRRQNGKEDFYRNWKNYVAGFGDPKDEFWIGLENLHKISSQGQYELRVDLRDRGETAYAVYDKFSVGDAKTRYRLRVDGYSGTAGDSMTYHNGRSFSTFDKDNDSAITNCALSYKGAFWYKNCHRVNLMGRYGDNNHSQGVNWFHWKGHEYSIQFAEMKLRPSSFRNLEGRRKRA
B1 was tested, and the “stoichiometry N” value was 6.
